Laboratory results taken from patent publication US20190338009A1 (ZEALAND PHARMA A S, published 2019).
Square brackets hold non-standard residues; d marks the D form. Aib = CC(C)(N)C(=O)O

T1: human GLP-2 receptor (hGLP2-R) (human, UniProt O95838 1-553)
T1 sequence (looked up): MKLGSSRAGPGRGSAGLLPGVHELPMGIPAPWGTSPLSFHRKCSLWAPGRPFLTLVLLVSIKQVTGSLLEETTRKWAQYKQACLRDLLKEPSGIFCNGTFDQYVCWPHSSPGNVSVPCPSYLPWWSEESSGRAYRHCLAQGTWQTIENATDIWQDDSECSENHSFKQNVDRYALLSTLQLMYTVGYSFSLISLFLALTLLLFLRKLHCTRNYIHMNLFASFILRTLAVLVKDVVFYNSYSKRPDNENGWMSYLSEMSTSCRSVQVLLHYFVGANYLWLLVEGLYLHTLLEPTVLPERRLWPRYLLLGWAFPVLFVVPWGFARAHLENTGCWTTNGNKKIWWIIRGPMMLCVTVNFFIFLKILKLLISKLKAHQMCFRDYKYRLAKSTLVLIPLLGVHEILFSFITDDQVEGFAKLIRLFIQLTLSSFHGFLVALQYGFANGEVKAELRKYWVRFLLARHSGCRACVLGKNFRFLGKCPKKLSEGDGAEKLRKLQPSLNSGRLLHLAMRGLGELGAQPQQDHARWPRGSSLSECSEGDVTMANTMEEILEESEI

B1: Compound 41 (peptide)
peptide: H-H[Aib]EGSFSSELATILDEQAARDFIAWLIQHKITD-OH
SMILES: CC[C@H](C)[C@H](NC(=O)[C@H](Cc1ccccc1)NC(=O)[C@H](CC(=O)O)NC(=O)[C@H](CCCNC(=N)N)NC(=O)[C@H](C)NC(=O)[C@H](C)NC(=O)[C@H](CCC(N)=O)NC(=O)[C@H](CCC(=O)O)NC(=O)[C@H](CC(=O)O)NC(=O)[C@H](CC(C)C)NC(=O)[C@@H](NC(=O)[C@@H](NC(=O)[C@H](C)NC(=O)[C@H](CC(C)C)NC(=O)[C@H](CCC(=O)O)NC(=O)[C@H](CO)NC(=O)[C@H](CO)NC(=O)[C@H](Cc1ccccc1)NC(=O)[C@H](CO)NC(=O)CNC(=O)[C@H](CCC(=O)O)NC(=O)C(C)(C)NC(=O)[C@@H](N)Cc1c[nH]cn1)[C@@H](C)O)[C@@H](C)CC)C(=O)N[C@@H](C)C(=O)N[C@@H](Cc1c[nH]c2ccccc12)C(=O)N[C@@H](CC(C)C)C(=O)N[C@H](C(=O)N[C@@H](CCC(N)=O)C(=O)N[C@@H](Cc1c[nH]cn1)C(=O)N[C@@H](CCCCN)C(=O)N[C@H](C(=O)N[C@H](C(=O)N[C@@H](CC(=O)O)C(=O)O)[C@@H](C)O)[C@@H](C)CC)[C@@H](C)CC
B2: Compound 37 (peptide)
peptide: H-H[Aib]EGTFTSELATILDEQAARDFINWLKEQKITD-OH
SMILES: CC[C@H](C)[C@H](NC(=O)[C@H](Cc1ccccc1)NC(=O)[C@H](CC(=O)O)NC(=O)[C@H](CCCNC(=N)N)NC(=O)[C@H](C)NC(=O)[C@H](C)NC(=O)[C@H](CCC(N)=O)NC(=O)[C@H](CCC(=O)O)NC(=O)[C@H](CC(=O)O)NC(=O)[C@H](CC(C)C)NC(=O)[C@@H](NC(=O)[C@@H](NC(=O)[C@H](C)NC(=O)[C@H](CC(C)C)NC(=O)[C@H](CCC(=O)O)NC(=O)[C@H](CO)NC(=O)[C@@H](NC(=O)[C@H](Cc1ccccc1)NC(=O)[C@@H](NC(=O)CNC(=O)[C@H](CCC(=O)O)NC(=O)C(C)(C)NC(=O)[C@@H](N)Cc1c[nH]cn1)[C@@H](C)O)[C@@H](C)O)[C@@H](C)O)[C@@H](C)CC)C(=O)N[C@@H](CC(N)=O)C(=O)N[C@@H](Cc1c[nH]c2ccccc12)C(=O)N[C@@H](CC(C)C)C(=O)N[C@@H](CCCCN)C(=O)N[C@@H](CCC(=O)O)C(=O)N[C@@H](CCC(N)=O)C(=O)N[C@@H](CCCCN)C(=O)N[C@H](C(=O)N[C@H](C(=O)N[C@@H](CC(=O)O)C(=O)O)[C@@H](C)O)[C@@H](C)CC
B3: Compound 34 (peptide)
peptide: H-H[Aib]EGTFTSELATILDEQAARDFISWLIAHKITD-OH
SMILES: CC[C@H](C)[C@H](NC(=O)[C@H](CC(C)C)NC(=O)[C@H](Cc1c[nH]c2ccccc12)NC(=O)[C@H](CO)NC(=O)[C@@H](NC(=O)[C@H](Cc1ccccc1)NC(=O)[C@H](CC(=O)O)NC(=O)[C@H](CCCNC(=N)N)NC(=O)[C@H](C)NC(=O)[C@H](C)NC(=O)[C@H](CCC(N)=O)NC(=O)[C@H](CCC(=O)O)NC(=O)[C@H](CC(=O)O)NC(=O)[C@H](CC(C)C)NC(=O)[C@@H](NC(=O)[C@@H](NC(=O)[C@H](C)NC(=O)[C@H](CC(C)C)NC(=O)[C@H](CCC(=O)O)NC(=O)[C@H](CO)NC(=O)[C@@H](NC(=O)[C@H](Cc1ccccc1)NC(=O)[C@@H](NC(=O)CNC(=O)[C@H](CCC(=O)O)NC(=O)C(C)(C)NC(=O)[C@@H](N)Cc1c[nH]cn1)[C@@H](C)O)[C@@H](C)O)[C@@H](C)O)[C@@H](C)CC)[C@@H](C)CC)C(=O)N[C@@H](C)C(=O)N[C@@H](Cc1c[nH]cn1)C(=O)N[C@@H](CCCCN)C(=O)N[C@H](C(=O)N[C@H](C(=O)N[C@@H](CC(=O)O)C(=O)O)[C@@H](C)O)[C@@H](C)CC
B4: Compound 36 (peptide)
peptide: H-H[Aib]EGTFTSELATILDEQAARDFINWLKSYKITD-OH
SMILES: CC[C@H](C)[C@H](NC(=O)[C@H](Cc1ccccc1)NC(=O)[C@H](CC(=O)O)NC(=O)[C@H](CCCNC(=N)N)NC(=O)[C@H](C)NC(=O)[C@H](C)NC(=O)[C@H](CCC(N)=O)NC(=O)[C@H](CCC(=O)O)NC(=O)[C@H](CC(=O)O)NC(=O)[C@H](CC(C)C)NC(=O)[C@@H](NC(=O)[C@@H](NC(=O)[C@H](C)NC(=O)[C@H](CC(C)C)NC(=O)[C@H](CCC(=O)O)NC(=O)[C@H](CO)NC(=O)[C@@H](NC(=O)[C@H](Cc1ccccc1)NC(=O)[C@@H](NC(=O)CNC(=O)[C@H](CCC(=O)O)NC(=O)C(C)(C)NC(=O)[C@@H](N)Cc1c[nH]cn1)[C@@H](C)O)[C@@H](C)O)[C@@H](C)O)[C@@H](C)CC)C(=O)N[C@@H](CC(N)=O)C(=O)N[C@@H](Cc1c[nH]c2ccccc12)C(=O)N[C@@H](CC(C)C)C(=O)N[C@@H](CCCCN)C(=O)N[C@@H](CO)C(=O)N[C@@H](Cc1ccc(O)cc1)C(=O)N[C@@H](CCCCN)C(=O)N[C@H](C(=O)N[C@H](C(=O)N[C@@H](CC(=O)O)C(=O)O)[C@@H](C)O)[C@@H](C)CC
B5: Compound 35 (peptide)
peptide: H-H[Aib]EGTFTSELATILDEQAARDFINWLKAHKITD-OH
SMILES: CC[C@H](C)[C@H](NC(=O)[C@H](Cc1ccccc1)NC(=O)[C@H](CC(=O)O)NC(=O)[C@H](CCCNC(=N)N)NC(=O)[C@H](C)NC(=O)[C@H](C)NC(=O)[C@H](CCC(N)=O)NC(=O)[C@H](CCC(=O)O)NC(=O)[C@H](CC(=O)O)NC(=O)[C@H](CC(C)C)NC(=O)[C@@H](NC(=O)[C@@H](NC(=O)[C@H](C)NC(=O)[C@H](CC(C)C)NC(=O)[C@H](CCC(=O)O)NC(=O)[C@H](CO)NC(=O)[C@@H](NC(=O)[C@H](Cc1ccccc1)NC(=O)[C@@H](NC(=O)CNC(=O)[C@H](CCC(=O)O)NC(=O)C(C)(C)NC(=O)[C@@H](N)Cc1c[nH]cn1)[C@@H](C)O)[C@@H](C)O)[C@@H](C)O)[C@@H](C)CC)C(=O)N[C@@H](CC(N)=O)C(=O)N[C@@H](Cc1c[nH]c2ccccc12)C(=O)N[C@@H](CC(C)C)C(=O)N[C@@H](CCCCN)C(=O)N[C@@H](C)C(=O)N[C@@H](Cc1c[nH]cn1)C(=O)N[C@@H](CCCCN)C(=O)N[C@H](C(=O)N[C@H](C(=O)N[C@@H](CC(=O)O)C(=O)O)[C@@H](C)O)[C@@H](C)CC
B6: Compound 39 (peptide)
peptide: H-H[Aib]EGTFSSELSTILEEQASREFIAWLIAHKITE-OH
SMILES: CC[C@H](C)[C@H](NC(=O)[C@H](CC(C)C)NC(=O)[C@H](Cc1c[nH]c2ccccc12)NC(=O)[C@H](C)NC(=O)[C@@H](NC(=O)[C@H](Cc1ccccc1)NC(=O)[C@H](CCC(=O)O)NC(=O)[C@H](CCCNC(=N)N)NC(=O)[C@H](CO)NC(=O)[C@H](C)NC(=O)[C@H](CCC(N)=O)NC(=O)[C@H](CCC(=O)O)NC(=O)[C@H](CCC(=O)O)NC(=O)[C@H](CC(C)C)NC(=O)[C@@H](NC(=O)[C@@H](NC(=O)[C@H](CO)NC(=O)[C@H](CC(C)C)NC(=O)[C@H](CCC(=O)O)NC(=O)[C@H](CO)NC(=O)[C@H](CO)NC(=O)[C@H](Cc1ccccc1)NC(=O)[C@@H](NC(=O)CNC(=O)[C@H](CCC(=O)O)NC(=O)C(C)(C)NC(=O)[C@@H](N)Cc1c[nH]cn1)[C@@H](C)O)[C@@H](C)O)[C@@H](C)CC)[C@@H](C)CC)C(=O)N[C@@H](C)C(=O)N[C@@H](Cc1c[nH]cn1)C(=O)N[C@@H](CCCCN)C(=O)N[C@H](C(=O)N[C@H](C(=O)N[C@@H](CCC(=O)O)C(=O)O)[C@@H](C)O)[C@@H](C)CC

Columns and labels:
[1] = target: human glucagon-like peptide 1 receptor (GLP-1R) (human, UniProt P43220 24-463); experiment: cell-based or functional assay
[2] = target: T1, human GLP-2 receptor (hGLP2-R); experiment: cell-based or functional assay

Binder | EC50 GLP-1 (nM); cAMP AlphaScreen, HEK293 cells expressing human GLP-1R [1] [nM] | EC50 GLP-2 (nM); cAMP AlphaScreen, HEK293 cells expressing human GLP-2R [2] [nM]
B1 | 0.078 | 0.026
H-HGEGSFSSELATILDEQAARDFIAWLIQHKITD-NH2 [Compound 40] | 1.4 | 0.05
B2 | 0.007 | 0.16
B3 | 0.005 | 0.049
B4 | 0.007 | 0.11
H-HGEGTFTSELATILDEQAARDFIAWLIAHKITD-OH [Compound 38] | 0.008 | 0.043
B5 | 0.006 | 0.048
B6 | 0.03 | 0.96
